Reference: the supplement of paper PMC9170038

Tests used:
MS2 coat protein = assay: apparent KD of MS2 coat protein; higher = weaker reporter binding; conditions: Eterna round: R107
Description: (§1)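 RNA-MaP round R107: designed RNA switches with theophylline, tryptophan, arginine or FMN aptamers are transcribed on-chip within common flanks. They are titrated with SNAP-549-labelled MS2 coat protein in RNA-MaP buffer (100 mM Tris pH 7.5, 80 mM KCl, 4 mM MgCl2), without ligand or with the indicated ligand. Median apparent KD per design.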

[1] = system: K4 kissing-loop RNA reporter; assay: apparent KD of K4 kissing-loop reporter; higher = weaker reporter binding; conditions: Eterna round: R107;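 note: bound reporter read as fluorescence of individual clusters on recovered sequencing chips by microscopy, with normalized cluster intensities fitted with a binding model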
Description: as §1, with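 “a labelled K4 kissing-loop RNA reporter” for “SNAP-549-labelled MS2 coat protein”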

[2] = input ligand: theophylline 20 uM
[3] = input ligand: theophylline 2 mM
[4] = input ligand: tryptophan 2.4 mM

Sequence | apparent KD of MS2 coat protein (MS2 coat protein; input ligand: arginine 13.2 mM) [nM] | apparent KD of MS2 coat protein (MS2 coat protein; input ligand: none) [nM] | apparent KD of MS2 coat protein (MS2 coat protein; [2]) [nM] | apparent KD of MS2 coat protein (MS2 coat protein; [3]) [nM] | apparent KD of MS2 coat protein (MS2 coat protein; [4]) [nM] | apparent KD of K4 kissing-loop reporter ([1]; input ligand: FMN 200 uM) [nM] | apparent KD of K4 kissing-loop reporter ([1]; input ligand: arginine 13.2 mM) [nM] | apparent KD of K4 kissing-loop reporter ([1]; input ligand: none) [nM] | apparent KD of K4 kissing-loop reporter [1, 2] [nM] | apparent KD of K4 kissing-loop reporter [1, 4] [nM]
AAAAUAAACUCGGCCGCCACUCAACGGACCCUUUGGACAUGAGGAUCACCCAUGUAUUUUGGAAAGAGGACCGGGAGAAAUAAAA [Exclusion - Trytophan B] | 8.32 | 8.35 | 17.8 | 11.7 | 12.2 | – | – | – | – | –
AAAAUAAAUAAAACACGUAACAUGAAGGAUACCAGACAGGAAACUGUCCCUUGGCAGCCUCUACAUGAGGAUCACCCAUGUCGUG [Mat - Same State Theophlline A - Mod of Eli - D17] | 112 | – | 128 | – | 266 | – | – | – | – | –
AAAAUAGAAGGAAGACAAAUAGAUACAGAAGGAGCGUAGGAAACUACAGGUAGGUCGCUGGAAAACAUGAGGAUCACCCAUGUAG [SSArg A #22 Slice of Pi Skeleton] | 31.5 | 40.6 | 54 | 46.9 | 42.6 | – | – | – | – | –
AAAAUCCUAUCUGAGGAUCACCCAGGUGAAGGAGCGCCCGAAAGGGCAGGUAGGUCGCACCUGAGGAUCACCCUGGUAACCUAAA [ArgEX 10 #DoubleMS2 #OpenEnded #AlternativeMS2] | 85.7 | 102 | 105 | 123 | 88.5 | – | – | – | – | –
AAACAUGAGGAUCACCCAUGUCCUCCUGUCCGAGGACCGGUACGGCCGCCACUCGGUUCUCGGGAGGAUGGUCAAAGACUAUCCA [Omei Trp A SS B v9] | 120 | – | 327 | 332 | – | – | – | – | – | –
AAACAUGAGGAUCACCCAUGUCCUCGUGAUCGAGGACCGGUACGGCCGCCACUCGGUCCUCGCGAGGUGGAGUCAAAGACUCCAA [Omei Trp A SS A v7] | 73.9 | 182 | 215 | 115 | 69.5 | – | – | – | – | –
AAACGCCACGGAAGGAGCGACAUGAGGAUCACCCAUGUAGAAGUGGCGGAUGCACCCUCCUGUCAGGUAGGUCGCCGUGCGCCAA [XArg-B24] | 17.1 | 21.2 | 39 | 29.7 | 22.4 | – | – | – | – | –
AAAGACAUGAGGAUCACCCAUGUGGGUGGGCGAGGACCGGUACGGCCGCCACUCGUGGGCGGGAAGGGAUAUUUAAUAAGGAAGA [same state--tryptophan A 1st shot] | 50 | 102 | 155 | 272 | 131 | – | – | – | – | –
AACAGACGAGACGAUACCAGUCUCUUAGCGCACAUGAGGAUCACCCAUGUUGGCAAGCUCGACCCUUGGCAGCGUACCUUUGAUC [theeternabot_sameState_MS2_Theo_B_6] | 23.8 | – | 34.3 | – | 24.3 | – | – | – | – | –
AACAUACAAUUUUAGGUGGAUAUAAGGCGGCGAGGACCGGUACGGCCGCCACUCGCGUACAUGAGGAUCACCCAUGUCUGAAACU [Same State - Tryptophan A (Freestyle 5)] | 14.6 | 19.8 | 28.1 | 28.9 | 24.4 | – | – | – | – | –
AACAUGAGCACGGCCGCCACUCCAUGAACAUGAGGAUCACCCAUACACAUGAGGAUCACCCAUGUGAGGACCGGGUGUCCAUGUG [Exclusion Tryptophan B 2] | 12.6 | – | 18.7 | 16.5 | – | – | – | – | – | –
AACAUGAGGAUCACCCAUGUCUGAACUGAAGGAGCGCUAAAUAAGGCAGGUAGGUCGCGGAAUUUUAUAUAUAUAUAUAUAUGGG [9.E] | 13.7 | 25.6 | 39.9 | 34.6 | 20.5 | – | – | – | – | –
AACAUGAGGAUCACCCAUGUUAAGUAUGAAGGAGCGUCGGAAACGACAGGUAGGUCGCAUACUUGGCCUUGUACUUCGUGUGUCU [#02 Exclusion - Arginine A] | 14.2 | 14.3 | 17.9 | 14.4 | 14.7 | – | – | – | – | –
AACGUAUACAGAAGGAGCGUGAAUUAUAUUACUCAUUCUUAUACAUGAGGAUCACCCAUGUCACAGGUAGGUCGCUGUAUUCGUA [JR_ExcArginiB_Sub019] | 81.9 | 106 | 91.9 | 111 | 81.6 | – | – | – | – | –
UUUGGUAUCUCGGCCGCCACUCGUGGGAAAUGGGCCUCAGGGAUAUAGUGAUGUUAUGUAAAGAAGAGGACCGGGAGAAGGAAGG [ExTryptoB.Dk] | – | – | – | – | – | 343 | 232 | 355 | 481 | 208
UUUGGUUUCUCGGCCGCCACUCGUUGUCUAUCGGCUUCAGGGAUAUAGUGAUGUUAUGUAUAGAAGAGGACCGGGAGAAGGUUUU [ExTryptoB.Dw] | – | – | – | – | – | 467 | 602 | 603 | 864 | 398
